Data on one molecule can be found in patent EP0980526B1 (IMPERIAL CANCER RESEARCH TECHNOLOGY LIMITED, dated 1998).

The target of this test is T1, SRC1a-M1234 (human, UniProt Q15788 1-1441, [35S]-labelled).
T1 construct: range 1-1441; also called mutant SRC1
As to the kind of experiment: GST pulldown, +/- 10^-6 M E2.

T1 sequence (Q15788 other isoform, or with tags, fused parts or gaps limits assumed): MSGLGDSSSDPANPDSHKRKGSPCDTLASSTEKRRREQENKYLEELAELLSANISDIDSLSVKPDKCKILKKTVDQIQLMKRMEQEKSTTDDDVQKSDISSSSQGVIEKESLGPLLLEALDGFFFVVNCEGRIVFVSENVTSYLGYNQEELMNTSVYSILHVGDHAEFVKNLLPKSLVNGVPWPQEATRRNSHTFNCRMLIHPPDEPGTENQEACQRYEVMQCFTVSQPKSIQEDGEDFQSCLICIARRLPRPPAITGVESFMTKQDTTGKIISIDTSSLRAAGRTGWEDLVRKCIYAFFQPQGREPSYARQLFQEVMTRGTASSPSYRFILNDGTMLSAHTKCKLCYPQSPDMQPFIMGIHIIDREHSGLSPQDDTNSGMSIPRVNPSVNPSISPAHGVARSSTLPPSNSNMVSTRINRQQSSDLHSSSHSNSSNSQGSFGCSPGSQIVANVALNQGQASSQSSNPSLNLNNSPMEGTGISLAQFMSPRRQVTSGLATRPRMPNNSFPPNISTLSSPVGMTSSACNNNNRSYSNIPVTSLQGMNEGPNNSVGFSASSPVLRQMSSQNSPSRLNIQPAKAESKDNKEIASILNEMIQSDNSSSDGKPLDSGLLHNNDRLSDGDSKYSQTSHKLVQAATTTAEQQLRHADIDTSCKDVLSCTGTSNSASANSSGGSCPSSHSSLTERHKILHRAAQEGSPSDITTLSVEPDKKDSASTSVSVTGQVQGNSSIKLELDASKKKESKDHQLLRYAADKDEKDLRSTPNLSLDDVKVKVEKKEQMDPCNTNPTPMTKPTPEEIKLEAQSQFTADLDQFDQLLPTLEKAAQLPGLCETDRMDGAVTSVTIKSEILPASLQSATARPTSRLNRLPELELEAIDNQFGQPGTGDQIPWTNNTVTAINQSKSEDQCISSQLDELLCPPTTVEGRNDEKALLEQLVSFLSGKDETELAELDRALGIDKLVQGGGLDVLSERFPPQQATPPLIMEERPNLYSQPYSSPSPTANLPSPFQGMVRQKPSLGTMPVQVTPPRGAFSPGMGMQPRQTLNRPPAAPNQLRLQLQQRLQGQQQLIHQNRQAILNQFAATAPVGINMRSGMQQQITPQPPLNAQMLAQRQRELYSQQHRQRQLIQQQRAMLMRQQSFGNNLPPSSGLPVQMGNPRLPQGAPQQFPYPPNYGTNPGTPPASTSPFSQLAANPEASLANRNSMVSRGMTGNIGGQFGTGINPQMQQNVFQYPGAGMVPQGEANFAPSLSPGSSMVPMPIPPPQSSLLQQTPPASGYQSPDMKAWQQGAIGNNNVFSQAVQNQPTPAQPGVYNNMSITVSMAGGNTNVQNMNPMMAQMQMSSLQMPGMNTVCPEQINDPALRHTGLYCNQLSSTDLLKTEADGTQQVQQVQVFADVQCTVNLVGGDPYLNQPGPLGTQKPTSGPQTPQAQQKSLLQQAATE

B1: GST-AF2 (ligand binding domain of the mouse estrogen receptor fused to glutathione-S-transferase) (receptor, UniProt P19785 313-599, looked up)
chain: SLTADQMVSALLDAEPPMIYSEYDPSRPFSEASMMGLLTNLADRELVHMINWAKRVPGFGDLNLHDQVHLLECAWLEILMIGLVWRSMEHPGKLLFAPNLLLDRNQGKCVEGMVEIFDMLLATSSRFRMMNLQGEEFVCLKSIILLNSGVYTFLSSTLKSLEEKDHIHRVLDKITDTLIHLMAKAGLTLQQQHRRLAQLLLILSHIRHMSNKGMEHLYNMKCKNVVPLYDLLLEMLDAHRLHAPASRMGVPPEEPSQTQLATTSSTSAHSLQTYYIPPEAEGFPNTI
notes: range 313-599; Loaded on glutathione beads; tested with or without 10^-6 M E2; also called ER LBD; not shown: glutathione-S-transferase (GST)
Consider B1, for which the binding result was “no binding”.
